Data published in patent US20180298083A1.
Like-named read-outs stand apart in the source and are kept apart here.

Columns and labels:
VRC01-resistant viruses [1] = test: cell-based or functional assay
6631.V3.C10 (HIV-1) [2] = target: 6631.V3.C10 (HIV-1)
[3] = target: gp120 of X2088 (HIV-1 strain X2088.c9)
VRC01-resistant viruses [4] = target: VRC01-resistant viruses
T250-4 (HIV-1) [5] = target: T250-4 (HIV-1)
VRC01-resistant viruses [6] = target: VRC01-resistant viruses; remark: listed apart in the source
6631.V3.C10 (HIV-1) [7] = target: 6631.V3.C10 (HIV-1); remark: listed apart in the source
[8] = target: gp120 of X2088 (HIV-1 strain X2088.c9); remark: listed apart in the source
T250-4 (HIV-1) [9] = target: T250-4 (HIV-1); remark: listed apart in the source
6631.V3.C10 (HIV-1) [10] = target: 6631.V3.C10 (HIV-1); remark: listed apart in the source
T250-4 (HIV-1) [11] = target: T250-4 (HIV-1); remark: listed apart in the source
[12] = target: gp120 of X2088 (HIV-1 strain X2088.c9); remark: listed apart in the source
VRC01-resistant viruses [13] = target: VRC01-resistant viruses; remark: listed apart in the source
VRC01-resistant viruses [14] = target: VRC01-resistant viruses; remark: listed apart in the source

Binder | fold decrease in neutralization (IC50 of antibody mutant/IC50 of antibody WT) (VRC01-resistant viruses [1]) | neutralisation median IC50 (VRC01-resistant viruses [4]) | neutralisation median IC50 (VRC01-resistant viruses [6]) | neutralisation IC50 (6631.V3.C10 (HIV-1) [7]) | neutralisation IC50 [8] | also measured
N6 Y54GHC (antibody, V domains shown) VH: RAHLVQSGTAMKKPGASVRVSCQTSGYTFTAHILFWFRQAPGRGLEWVGWIKPQGGAVNFGGGFRDRVTLTRDVYREIAYMDIRGLKPDDTAVYYCARDRSYGDSSWALDAWGQGTTVVVSA VL: YIHVTQSPSSLSVSIGDRVTINCQTSQGVGSDLHWYQHKPGRAPKLLIHHTSSVEDGVPSRFSGSGFHTSFNLTISDLQADDIATYYCQVLQFFGRGSRLHIK | 32 fold | 0.562 µg/mL |  |  |  | neutralisation IC50 (6631.V3.C10 (HIV-1) [2]): 0.396 µg/mL; neutralisation IC50 [3]: 0.728 µg/mL
N6 VRC08CDRH3 (antibody, V domains shown) VH: RAHLVQSGTAMKKPGASVRVSCQTSGYTFTAHILFWFRQAPGRGLEWVGWIKPQYGAVNFGGGFRDRVTLTRDVYREIAYMDIRGLKPDDTAVYYCARGRSCCGGRRHCNGADCFNWALDAWGQGTTVVVSA VL: YIHVTQSPSSLSVSIGDRVTINCQTSQGVGSDLHWYQHKPGRAPKLLIHHTSSVEDGVPSRFSGSGFHTSFNLTISDLQADDIATYYCQVLQFFGRGSRLHIK |  | > 50 µg/mL |  |  |  | neutralisation IC50 (T250-4 (HIV-1) [5]): > 50 µg/mL; neutralisation IC50 [3]: 1.4 µg/mL
N6 N17FRH1 (antibody, V domains shown) VH: RAHLVQSGTAVKRPGASVRVSCETSGYTFTAHILFWFRQAPGRGLEWVGWIKPQYGAVNFGGGFRDRVTLTRDVYREIAYMDIRGLKPDDTAVYYCARDRSYGDSSWALDAWGQGTTVVVSA VL: YIHVTQSPSSLSVSIGDRVTINCQTSQGVGSDLHWYQHKPGRAPKLLIHHTSSVEDGVPSRFSGSGFHTSFNLTISDLQADDIATYYCQVLQFFGRGSRLHIK |  |  | 0.111 µg/mL |  |  | fold decrease in potency (IC50 of antibody mutant/IC50 of antibody WT) (VRC01-resistant viruses [1]): 5 fold; neutralisation fold change (IC50 mutant/IC50 WT) (VRC01-resistant viruses [6]): 6 fold
N6 VRC27FRH3 (antibody, V domains shown) VH: RAHLVQSGTAMKKPGASVRVSCQTSGYTFTAHILFWFRQAPGRGLEWVGWIKPQYGAVNFGGGFRDRITLTRDIYRETAFLDLTGLRFDDTAVYYCARDRSYGDSSWALDAWGQGTTVVVSA VL: YIHVTQSPSSLSVSIGDRVTINCQTSQGVGSDLHWYQHKPGRAPKLLIHHTSSVEDGVPSRFSGSGFHTSFNLTISDLQADDIATYYCQVLQFFGRGSRLHIK |  |  | 0.525 µg/mL | 0.54 µg/mL | 0.509 µg/mL | 
N6 VRC27CDRH2 (antibody, V domains shown) VH: RAHLVQSGTAMKKPGASVRVSCQTSGYTFTAHILFWFRQAPGRGLEWVGWIKPKFGAVNYAHSFQGRVTLTRDVYREIAYMDIRGLKPDDTAVYYCARDRSYGDSSWALDAWGQGTTVVVSA VL: YIHVTQSPSSLSVSIGDRVTINCQTSQGVGSDLHWYQHKPGRAPKLLIHHTSSVEDGVPSRFSGSGFHTSFNLTISDLQADDIATYYCQVLQFFGRGSRLHIK | 78 fold |  | 1.37 µg/mL | 1.17 µg/mL |  | neutralisation IC50 (T250-4 (HIV-1) [9]): 1.57 µg/mL
N6 VRC27FRH1 (antibody, V domains shown) VH: SQRLVQSGPQVRKPGSSVRISCETSGYTFNAHILFWFRQAPGRGLEWVGWIKPQYGAVNFGGGFRDRVTLTRDVYREIAYMDIRGLKPDDTAVYYCARDRSYGDSSWALDAWGQGTTVVVSA VL: YIHVTQSPSSLSVSIGDRVTINCQTSQGVGSDLHWYQHKPGRAPKLLIHHTSSVEDGVPSRFSGSGFHTSFNLTISDLQADDIATYYCQVLQFFGRGSRLHIK |  |  | 0.373 µg/mL | 0.561 µg/mL | 0.184 µg/mL | 
N6 GGG60-62ARPHC (antibody, V domains shown) VH: RAHLVQSGTAMKKPGASVRVSCQTSGYTFTAHILFWFRQAPGRGLEWVGWIKPQYGAVNFARPFRDRVTLTRDVYREIAYMDIRGLKPDDTAVYYCARDRSYGDSSWALDAWGQGTTVVVSA VL: YIHVTQSPSSLSVSIGDRVTINCQTSQGVGSDLHWYQHKPGRAPKLLIHHTSSVEDGVPSRFSGSGFHTSFNLTISDLQADDIATYYCQVLQFFGRGSRLHIK | 14 fold | 0.248 µg/mL |  |  |  | neutralisation IC50 [3]: 0.15 µg/mL
N6 N17FRH3 (antibody, V domains shown) VH: RAHLVQSGTAMKKPGASVRVSCQTSGYTFTAHILFWFRQAPGRGLEWVGWIKPQYGAVNFGGGFRDRVTLTRDIYRDTAYMDISGLRFDDTAVYYCARDRSYGDSSWALDAWGQGTTVVVSA VL: YIHVTQSPSSLSVSIGDRVTINCQTSQGVGSDLHWYQHKPGRAPKLLIHHTSSVEDGVPSRFSGSGFHTSFNLTISDLQADDIATYYCQVLQFFGRGSRLHIK |  |  | 0.18 µg/mL |  | 0.106 µg/mL | fold decrease in potency (IC50 of antibody mutant/IC50 of antibody WT) (VRC01-resistant viruses [1]): 7 fold; neutralisation fold change (IC50 mutant/IC50 WT) (VRC01-resistant viruses [6]): 10 fold
VRC27 heavy chain with N6 light chain (antibody, V domains shown) VH: QRLVQSGPQVRKPGSSVRISCETSGYTFNAYILHWFRQAPGRSFEWMGWIKPKFGAVNYAHSFQGRITLTRDIYRETAFLDLTGLRFDDTAVYYCARDRLYDGSSWRLDPWGQGTRVVVSS VL: YIHVTQSPSSLSVSIGDRVTINCQTSQGVGSDLHWYQHKPGRAPKLLIHHTSSVEDGVPSRFSGSGFHTSFNLTISDLQADDIATYYCQVLQFFGRGSRLHIK |  |  |  |  |  | neutralisation IC50 (6631.V3.C10 (HIV-1) [10]): > 50 µg/mL; neutralisation IC50 (T250-4 (HIV-1) [11]): 23.1 µg/mL; neutralisation IC50 [12]: > 50 µg/mL; neutralisation fold change (IC50 original/IC50 combination) (VRC01-resistant viruses [13]): 1 fold; neutralisation median IC50 (VRC01-resistant viruses [13]): > 50 µg/mL
N6 VRC27CDRH3 (antibody, V domains shown) VH: RAHLVQSGTAMKKPGASVRVSCQTSGYTFTAHILFWFRQAPGRGLEWVGWIKPQYGAVNFGGGFRDRVTLTRDVYREIAYMDIRGLKPDDTAVYYCARDRLYDGSSWRLDPWGQGTTVVVSA VL: YIHVTQSPSSLSVSIGDRVTINCQTSQGVGSDLHWYQHKPGRAPKLLIHHTSSVEDGVPSRFSGSGFHTSFNLTISDLQADDIATYYCQVLQFFGRGSRLHIK | 10 fold |  | 0.167 µg/mL | 0.268 µg/mL |  | 
N6 VRC27FRH2 (antibody, V domains shown) VH: RAHLVQSGTAMKKPGASVRVSCQTSGYTFTAHILFWFRQAPGRSFEWMGWIKPQYGAVNFGGGFRDRVTLTRDVYREIAYMDIRGLKPDDTAVYYCARDRSYGDSSWALDAWGQGTTVVVSA VL: YIHVTQSPSSLSVSIGDRVTINCQTSQGVGSDLHWYQHKPGRAPKLLIHHTSSVEDGVPSRFSGSGFHTSFNLTISDLQADDIATYYCQVLQFFGRGSRLHIK |  |  | 0.195 µg/mL |  | 0.143 µg/mL | 
N6 VRC07CDRH3 (antibody, V domains shown) VH: RAHLVQSGTAMKKPGASVRVSCQTSGYTFTAHILFWFRQAPGRGLEWVGWIKPQYGAVNFGGGFRDRVTLTRDVYREIAYMDIRGLKPDDTAVYYCARGKYCTARDYYNWALDAWGQGTTVVVSA VL: YIHVTQSPSSLSVSIGDRVTINCQTSQGVGSDLHWYQHKPGRAPKLLIHHTSSVEDGVPSRFSGSGFHTSFNLTISDLQADDIATYYCQVLQFFGRGSRLHIK |  | 48.2 µg/mL |  |  |  | neutralisation IC50 (6631.V3.C10 (HIV-1) [2]): > 50 µg/mL; neutralisation IC50 (T250-4 (HIV-1) [5]): > 50 µg/mL
VRC01 (antibody, V domains shown) VH: QVQLVQSGGQMKKPGESMRISCRASGYEFIDCTLNWIRLAPGKRPEWMGWLKPRGGAVNYARPLQGRVTMTRDVYSDTAFLELRSLTVDDTAVYFCTRGKNCDYNWDFEHWGRGTPVIVSS VL: EIVLTQSPGTLSLSPGETAIISCRTSQYGSLAWYQQRPGQAPRLVIYSGSTRAAGIPDRFSGSRWGPDYNLTISNLESGDFGVYYCQQYEFFGQGTKVQVDIKR |  |  |  |  |  | neutralisation IC50 (VRC01-resistant viruses [14]): > 50 µg/mL; neutralisation median IC50 (VRC01-resistant viruses [14]): > 50 µg/mL
